Data: patent publication US12065471B2, “B*44 restricted peptides for use in immunotherapy against cancers and related methods” (Immatics Biotechnologies GmbH, priority 2018, dated 2024)

Target: HLA-B*44:05 (Homo sapiens, UniProt P01889, A223V/A65T/A93T/A95T/D201E/D98Y/E176V/E187L/E204Q/E69K/G107R/H137Y/K202T/L105A/L119I/N104T/N87E/Q56L/Q94N/R106L/R155S/R180D/S101N/S121R/S35A/S48T/T118I/V36M/W191S/Y91S)
Experiment: MHC binding assay (UV-ligand exchange, β2m ELISA, peptide exchange yield)
Settings: binding to HLA-B*44:05
Summary of the method: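 Peptide–HLA complexes formed by UV-ligand exchange of a UV-cleavable peptide for the test peptide. Exchange yield measured by β2m ELISA: complexes diluted 100-fold and captured on streptavidin, detected with HRP anti-β2m and TMB, read at 450 nm. Quantified against refolded HLA-A*02:01/MLA-001 monomer standards, 15-500 ng/ml.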

Peptide exchange (MHC class I binding score, peptide exchange yield)	Substance
+++ (>50 = +++)	391 (TESIGAQIY; listed as Homo sapiens) [compound 391]
+++ (>50 = +++)	443 (EEYAGQITL; listed as Homo sapiens) [compound 443]
+++ (>50 = +++)	438 (AELDSKILAL; listed as Homo sapiens) [compound 438]
++++ (>75% = ++++)	405 (YEHAFNSIVW; listed as Homo sapiens) [compound 405]
+++ (>50 = +++)	368 (KEKVPGITI; listed as Homo sapiens) [compound 368]
+++ (>50 = +++)	370 (EEVLLANALW; listed as Homo sapiens) [compound 370]
++++ (>75% = ++++)	369 (KELEERMLHW; listed as Homo sapiens) [compound 369]
+++ (>50 = +++)	387 (GEVQENYKL; listed as Homo sapiens) [compound 387]
++++ (>75% = ++++)	430 (RELARVVTL; listed as Homo sapiens) [compound 430]
++ (>20% = ++)	389 (DEQRRQNVAY; listed as Homo sapiens) [compound 389]
+++ (>50 = +++)	415 (EEAGFPLAY; listed as Homo sapiens) [compound 415]
++ (>20% = ++)	379 (AENRVGKMEA; listed as Homo sapiens) [compound 379]
+++ (>50 = +++)	444 (SESALQTVI; listed as Homo sapiens) [compound 444]
++ (>20% = ++)	401 (VENIFHNF; listed as Homo sapiens) [compound 401]
++++ (>75% = ++++)	432 (TEENGFWYL; listed as Homo sapiens) [compound 432]
++ (>20% = ++)	351 (EEGRVYVY; listed as Homo sapiens) [compound 351]
++++ (>75% = ++++)	381 (QELMAFSFAGL; listed as Homo sapiens) [compound 381]
++ (>20% = ++)	429 (RETEDYSKQAL; listed as Homo sapiens) [compound 429]
+++ (>50 = +++)	436 (AEADLSYTWDF; listed as Homo sapiens) [compound 436]
+++ (>50 = +++)	439 (VEVGDRTDW; listed as Homo sapiens) [compound 439]
+ (>10% = +)	398 (AEIIRYIF; listed as Homo sapiens) [compound 398]

More lines, now with the values behind:

Substance	Peptide exchange (MHC class I binding score, peptide exchange yield)
89 (KEFYPVKEF; listed as Homo sapiens) [compound 89]	++ (>20% = ++)
286 (DELSVGRY; listed as Homo sapiens) [compound 286]	++ (>20% = ++)
64 (EEYQDSFERY; listed as Homo sapiens) [compound 64]	++ (>20% = ++)
305 (AEKNRRDAETW; listed as Homo sapiens) [compound 305]	++++ (>75% = ++++)
165 (EEIEAHIAL; listed as Homo sapiens) [compound 165]	+++ (>50 = +++)
288 (TEHFLKKFF; listed as Homo sapiens) [compound 288]	+++ (>50 = +++)
266 (EEEDRDGHTW; listed as Homo sapiens) [compound 266]	+++ (>50 = +++)
342 (SENKKWVEF; listed as Homo sapiens) [compound 342]	++ (>20% = ++)
330 (SEHLFGTSY; listed as Homo sapiens) [compound 330]	+++ (>50 = +++)
124 (NENLDYAIL; listed as Homo sapiens) [compound 124]	++++ (>75% = ++++)
321 (AENPLNIFYI; listed as Homo sapiens) [compound 321]	+++ (>50 = +++)
184 (EEQLLQKVM; listed as Homo sapiens) [compound 184]	++++ (>75% = ++++)
132 (AESFTSGRHYW; listed as Homo sapiens) [compound 132]	++++ (>75% = ++++)
158 (VEEERYTGQW; listed as Homo sapiens) [compound 158]	+++ (>50 = +++)
189 (ALNGDIYVW; listed as Homo sapiens) [compound 189]	++++ (>75% = ++++)
113 (MEFKTLNKN; listed as Homo sapiens) [compound 113]	++ (>20% = ++)
181 (HEVAQDDHL; listed as Homo sapiens) [compound 181]	++ (>20% = ++)
210 (AEGEPPPALAW; listed as Homo sapiens) [compound 210]	+++ (>50 = +++)
176 (GETQQHIQL; listed as Homo sapiens) [compound 176]	+++ (>50 = +++)
233 (QEDKATQTL; listed as Homo sapiens) [compound 233]	++++ (>75% = ++++)
126 (SEASQSPQY; listed as Homo sapiens) [compound 126]	+++ (>50 = +++)
106 (SVISDSPRSW; listed as Homo sapiens) [compound 106]	+++ (>50 = +++)
254 (QEVAGYVLI; listed as Homo sapiens) [compound 254]	+++ (>50 = +++)

Substance	Peptide exchange (MHC class I binding score, peptide exchange yield)
244 (VESSQAFTW; listed as Homo sapiens) [compound 244]	+++ (>50 = +++)
74 (AELEGALQKA; listed as Homo sapiens) [compound 74]	++ (>20% = ++)
203 (REILHAQTL; listed as Homo sapiens) [compound 203]	+++ (>50 = +++)
50 (SEYVHSSFSGF; listed as Homo sapiens) [compound 50]	+++ (>50 = +++)
168 (EEGPSVPKIY; listed as Homo sapiens) [compound 168]	++ (>20% = ++)
91 (EESLLSSWDF; listed as Homo sapiens) [compound 91]	+++ (>50 = +++)
173 (SEHSLEGQKF; listed as Homo sapiens) [compound 173]	+++ (>50 = +++)
163 (AEDEDGKIVGY; listed as Homo sapiens) [compound 163]	++ (>20% = ++)
76 (RLNEHPSNNW; listed as Homo sapiens) [compound 76]	++ (>20% = ++)
3 (DEIFTNDRRW; listed as Homo sapiens) [compound 3]	++ (>20% = ++)
317 (TEFQQIINL; listed as Homo sapiens) [compound 317]	++++ (>75% = ++++)
195 (MEIKGTVTEF; listed as Homo sapiens) [compound 195]	+++ (>50 = +++)
93 (SEAGLTANQY; listed as Homo sapiens) [compound 93]	+++ (>50 = +++)
274 (DEIDKLTGY; listed as Homo sapiens) [compound 274]	++ (>20% = ++)
112 (AEIEADRSYQH; listed as Homo sapiens) [compound 112]	+++ (>50 = +++)
159 (EEVQDGKVI; listed as Homo sapiens) [compound 159]	++ (>20% = ++)
272 (SEQNIQRANLF; listed as Homo sapiens) [compound 272]	+++ (>50 = +++)
103 (AELFLTKSF; listed as Homo sapiens) [compound 103]	++++ (>75% = ++++)
344 (DEIRVFGY; listed as Homo sapiens) [compound 344]	++ (>20% = ++)
193 (RELRPLFDRQW; listed as Homo sapiens) [compound 193]	+++ (>50 = +++)
276 (SEYQDGKEF; listed as Homo sapiens) [compound 276]	++ (>20% = ++)
314 (EMREERKF; listed as Homo sapiens) [compound 314]	++ (>20% = ++)
229 (AEDLEKKYA; listed as Homo sapiens) [compound 229]	++ (>20% = ++)
